Data published in patent US20130004513A1 (published 2013).
Positions count from the first letter of the chain named. In names and notes the source's numbering stands. One block for each binder: values may come before it.

How the values were obtained:
[1] = target: Human CD4 on CD4+CD25+ regulatory T cells of healthy donors (human, UniProt P01730 26-458); assay: cell-based or functional assay
[2] = target: T1, Human CD4 on CD4+CD25+ regulatory T cells (human, UniProt P01730 26-458); assay: in vitro assay with CD4+CD25+ regulatory T cells (allogeneic mixed lymphocyte reaction); no separate binding assay described
T1 construct: CD4 on Tregs or T cells of healthy human donors
Description: CD4+ CD25+ regulatory T cells were freshly isolated from a first donor (donor A). PBMCs were obtained from EDTA-blood by density gradient centrifugation. […] Tregs were pre-incubated with or without plate-bound antibody for 2 days. The number and phenotype of Tregs was determined by six colour flow cytometry as previously described (Haas et al., 2007). Pre-incubated Tregs were transferred to responder T cells (second donor B) in the presence of T-cell depleted and irradiated PBMCs (first donor A). After stimulation, [³H] thymidine was added and proliferation of responder T cells was measured after five days.

- % Inh1 [1]: 5.3%
- % Inh2 [1]: 2%
- % Inh3 [1]: 7%
- Avg. % inhibition [1]: 4.8%
B2: LC master HC Y105W (antibody, V domains shown)
VH: EEQLVESGGGLVKPGGSLRLSCAASGFSFSDCRMYWLRQAPGKGLEWIGVISVKSENYGANYAESVRGRFTISRDDSKNTVYLQMNSLKTEDTAVYYCSASYYRWDVGAWFAYWGQGTLVTVSS
VL: DIVMTQSPDSLAVSLGERATINCRASKSVSTSGYSYIYWYQQKPGQPPKLLIYLASILESGVPDRFSGSGSGTDFTLTISSLQAEDVAVYYCQHSRELPWTFGQGTKVEIKR

- % Inh1 [1]: 3.1%
- % Inh2 [1]: -3.6%
- % Inh3 [1]: 0%
- Avg. % inhibition [1]: -0.2%
B3: LC master HC S101T (antibody, V domains shown)
VH: B2 VH with S101T, W105Y
VL: B2 VL

- % Inh1 [1]: 33.1%
- % Inh2 [1]: 25.5%
- % Inh3 [1]: 19.5%
- Avg. % inhibition [1]: 26%
B4: LC master HC A63G (antibody, V domains shown)
VH: B2 VH with A63G, W105Y
VL: B2 VL

- % Inh1 [1]: 9.2%
- % Inh2 [1]: 24.3%
- % Inh3 [1]: 24.6%
- Avg. % inhibition [1]: 19.4%
B5: LC L98I HC R33K (antibody, V domains shown)
VH: B2 VH with R33K, W105Y
VL: B2 VL with L98I

- % Inh2 [1]: 25.4%
- % Inh3 [1]: 25.9%
- Avg. % inhibition [1]: 26.3%
B8: LC master HC master (antibody, human IgG1, kappa, V domains shown)
VH: B2 VH with W105Y
VL: B2 VL

- % Inh1 [1]: 6.5%
- % Inh2 [1]: 7.9%
- % Inh3 [1]: 9%
- Avg. % inhibition [1]: 7.8%
B9: LC G33A HC R33K (antibody, V domains shown)
VH: B2 VH with R33K, W105Y
VL: B2 VL with G33A

- binding result [2]: no binding
B11: BT061 variant LC master HC Y105W (antibody, V domains shown)
VH: B2 VH
VL: B2 VL
notes: also called knockout mutant

The next lines start with the binder.

B1: BT61 Lot 52690 (antibody, human IgG1, kappa, V domains shown)
VH: B2 VH with W105Y
VL: B2 VL
- % Inh1 [1]: 26.7%
- % Inh2 [1]: 24.1%
- % Inh3 [1]: 27.8%
- Avg. % inhibition [1]: 26.2%

B6: LC A55G HC R33K (antibody, V domains shown)
VH: B2 VH with R33K, W105Y
VL: B2 VL with A55G
- % Inh1 [1]: 12.1%
- % Inh2 [1]: 6.4%
- % Inh3 [1]: 19.3%
- Avg. % inhibition [1]: 12.6%

B7: HC master LC L98I (antibody, V domains shown)
VH: B2 VH with W105Y
VL: B2 VL with L98I
- % Inh1 [1]: 12.2%
- % Inh2 [1]: 8.4%
- % Inh3 [1]: 18.2%
- Avg. % inhibition [1]: 12.9%

B10: LC master HC R33K (antibody, V domains shown)
VH: B2 VH with R33K, W105Y
VL: B2 VL
- % Inh1 [1]: 19.8%
- % Inh2 [1]: 18.8%
- % Inh3 [1]: 15%
- Avg. % inhibition [1]: 17.9%

B12: LC master HC R33K-A63G (antibody, V domains shown)
VH: B2 VH with R33K, A63G, W105Y
VL: B2 VL
- % Inh1 [1]: 15.7%
- % Inh2 [1]: 21.5%
- % Inh3 [1]: 21.9%
- Avg. % inhibition [1]: 19.7%
